Reference: patent US20260008839A1 (BRIGHAM AND WOMEN S HOSPITAL, published 2026)
Values belong to the molecule of their own block, whether it stands above or below them.

Columns and labels:
Dll4 [1] = assay: flow cytometry: recombinant NOTCH1-Fc + PE anti-IgG Fc on DLL4-expressing Cf2Th cells pre-treated with control IgG; gate PE+
Dll4 [2] = assay: flow cytometry: recombinant NOTCH1-Fc + PE anti-IgG Fc on DLL4-expressing Cf2Th cells pre-treated with control IgG
Dll4 [3] = assay: flow cytometry: recombinant NOTCH1-Fc + PE anti-IgG Fc on DLL4-expressing HEK293T cells pre-treated with control IgG; gate PE+
human DLL4 [4] = biological target: T1, human DLL4 (human, UniProt Q9NR61 27-529, limits assumed); assay: SPR Biacore 3000, antibody captured on anti-rat Fc (140 RU), full kinetics, analyte 0-12.5 nM
T1 construct: also called Hu.DLL4; HuDLL4
T1 sequence (Q9NR61 27-529 limits assumed): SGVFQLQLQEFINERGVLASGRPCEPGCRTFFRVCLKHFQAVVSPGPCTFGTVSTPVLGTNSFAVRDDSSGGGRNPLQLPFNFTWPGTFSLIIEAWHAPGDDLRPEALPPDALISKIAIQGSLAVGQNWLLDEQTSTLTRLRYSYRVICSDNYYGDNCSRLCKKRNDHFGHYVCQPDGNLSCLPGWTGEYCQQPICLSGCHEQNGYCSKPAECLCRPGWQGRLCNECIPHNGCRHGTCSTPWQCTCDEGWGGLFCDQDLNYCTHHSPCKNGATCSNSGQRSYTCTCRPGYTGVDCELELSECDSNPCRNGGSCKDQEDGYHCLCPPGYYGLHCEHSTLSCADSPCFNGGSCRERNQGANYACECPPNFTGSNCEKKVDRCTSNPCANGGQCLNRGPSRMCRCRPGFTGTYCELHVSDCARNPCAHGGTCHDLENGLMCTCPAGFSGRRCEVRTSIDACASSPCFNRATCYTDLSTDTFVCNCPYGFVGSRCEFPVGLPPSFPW
Procedure: (§1) Binding experiments were performed on Biacore 3000 at 25° C. Flow cell 2, 3 and 4 of the CM5 chip were coated with the goat anti-rat Fc Capture Ab using EDC/NHS the amine coupling method as per GE manufacturer's instruction. The unoccupied sites were blocked with 1M ethanolamine. Three test antibodies were captured at an RU as indicated on flow cell 2, 3 and 4. Ag was flowed over the chip. Binding of antigen to the antibodies was monitored in real time. From the observed kₒₙ and koff, KD was determined. For the interactions with fast off rate, steady state kinetics was used to determine KD.

porcine DLL4 [5] = biological target: T2, porcine DLL4 (porcine, UniProt A0A4X1URL1 27-529); assay: SPR Biacore 3000, antibody captured on anti-rat Fc (110 RU), full kinetics, analyte 0-50 nM
T2 construct: Construct not described (pig DLL4 ECD is named only for hybridoma screening); also called pig DLL4; porcine DDL4
T2 sequence (A0A4X1URL1 entry or part of it): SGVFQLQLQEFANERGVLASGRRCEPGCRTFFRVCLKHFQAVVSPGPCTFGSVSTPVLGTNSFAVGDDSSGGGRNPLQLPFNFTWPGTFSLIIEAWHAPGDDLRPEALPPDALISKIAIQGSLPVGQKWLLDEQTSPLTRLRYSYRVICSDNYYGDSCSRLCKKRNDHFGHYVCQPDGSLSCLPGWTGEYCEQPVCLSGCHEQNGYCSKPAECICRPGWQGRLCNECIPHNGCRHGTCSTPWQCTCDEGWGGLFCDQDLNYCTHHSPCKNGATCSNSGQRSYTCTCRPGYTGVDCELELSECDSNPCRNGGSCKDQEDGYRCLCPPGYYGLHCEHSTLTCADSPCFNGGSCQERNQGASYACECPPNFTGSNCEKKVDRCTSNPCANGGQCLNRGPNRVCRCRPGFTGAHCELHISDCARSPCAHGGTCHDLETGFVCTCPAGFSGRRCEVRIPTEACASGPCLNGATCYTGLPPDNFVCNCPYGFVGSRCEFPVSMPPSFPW
Procedure: as §1

porcine DLL4 [6] = biological target: T2, porcine DLL4; assay: SPR Biacore 3000, antibody captured on anti-rat Fc (80 RU), scouting at 20 nM and 100 nM analyte
Procedure: as §1

human DLL1 [7] = biological target: T3, human DLL1 (human, UniProt O00548 18-545, limits assumed); assay: SPR Biacore 3000, antibody captured on anti-rat Fc (220 RU), scouting
T3 construct: Construct not described; also called Hu.DLL1
T3 sequence (looked up): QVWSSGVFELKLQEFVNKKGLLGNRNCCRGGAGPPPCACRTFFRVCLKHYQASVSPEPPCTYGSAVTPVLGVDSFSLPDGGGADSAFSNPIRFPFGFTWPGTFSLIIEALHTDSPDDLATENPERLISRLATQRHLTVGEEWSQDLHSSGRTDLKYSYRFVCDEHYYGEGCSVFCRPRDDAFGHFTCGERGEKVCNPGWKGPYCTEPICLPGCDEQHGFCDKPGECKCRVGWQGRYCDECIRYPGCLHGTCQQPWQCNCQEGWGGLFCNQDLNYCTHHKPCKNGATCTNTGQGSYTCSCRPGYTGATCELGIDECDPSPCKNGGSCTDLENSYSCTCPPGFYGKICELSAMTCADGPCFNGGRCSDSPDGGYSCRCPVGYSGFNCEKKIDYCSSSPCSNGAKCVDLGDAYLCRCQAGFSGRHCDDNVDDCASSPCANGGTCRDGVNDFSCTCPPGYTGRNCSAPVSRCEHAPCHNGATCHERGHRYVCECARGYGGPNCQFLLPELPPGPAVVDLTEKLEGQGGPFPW
Procedure: as §1
(§2) Scouting analysis was performed using a single analyte concentration of 100 nM. At this concentration, binding should be observed even if the ligand binding affinity is weak. Flow cell 1 response was used for reference subtraction.

human DLL4 [8] = biological target: T1, human DLL4; assay: SPR Biacore 3000, antibody captured on anti-rat Fc (220 RU), scouting at 100 nM analyte
Procedure: as §1, §2

porcine DLL4 [9] = biological target: T2, porcine DLL4; assay: SPR Biacore 3000, antibody captured on anti-rat Fc (80 RU), full kinetics, analyte 0-50 nM
Procedure: as §1

human DLL4 [10] = biological target: T1, human DLL4; assay: head of the antibody's table; summary bound, assay and unit not named there
human DLL1 [11] = biological target: T3, human DLL1; assay: head of the antibody's table; assay not named
human DLL4 [12] = biological target: T1, human DLL4; assay: SPR Biacore 3000, antibody captured on anti-rat Fc (90 RU), full kinetics, analyte 0-25 nM
Procedure: as §1

human DLL4 [13] = biological target: T1, human DLL4; assay: SPR Biacore 3000, full kinetics, against 8D2 as reference
Procedure: as §1

human DLL4 [14] = biological target: T1, human DLL4; assay: SPR Biacore 3000, antibody captured on anti-rat Fc (170 RU), scouting at 100 nM analyte
Procedure: as §1, §2

porcine DLL4 [15] = biological target: T2, porcine DLL4; assay: SPR Biacore 3000, antibody captured on anti-rat Fc (130 RU), full kinetics, analyte 0-200 nM
Procedure: as §1

porcine DLL4 [16] = biological target: T2, porcine DLL4; assay: SPR Biacore 3000, antibody captured on anti-rat Fc (75 RU), scouting at 20 nM and 100 nM analyte
human DLL4 [17] = biological target: T1, human DLL4; assay: SPR Biacore 3000, antibody captured on anti-rat Fc (161 RU), scouting at 100 nM analyte
Procedure: as §1, §2

human DLL1 [18] = biological target: T3, human DLL1; assay: SPR Biacore 3000, antibody captured on anti-rat Fc (161 RU), scouting
Procedure: as §1, §2

Sequence of Dll4 (chain, as listed by the source limits assumed): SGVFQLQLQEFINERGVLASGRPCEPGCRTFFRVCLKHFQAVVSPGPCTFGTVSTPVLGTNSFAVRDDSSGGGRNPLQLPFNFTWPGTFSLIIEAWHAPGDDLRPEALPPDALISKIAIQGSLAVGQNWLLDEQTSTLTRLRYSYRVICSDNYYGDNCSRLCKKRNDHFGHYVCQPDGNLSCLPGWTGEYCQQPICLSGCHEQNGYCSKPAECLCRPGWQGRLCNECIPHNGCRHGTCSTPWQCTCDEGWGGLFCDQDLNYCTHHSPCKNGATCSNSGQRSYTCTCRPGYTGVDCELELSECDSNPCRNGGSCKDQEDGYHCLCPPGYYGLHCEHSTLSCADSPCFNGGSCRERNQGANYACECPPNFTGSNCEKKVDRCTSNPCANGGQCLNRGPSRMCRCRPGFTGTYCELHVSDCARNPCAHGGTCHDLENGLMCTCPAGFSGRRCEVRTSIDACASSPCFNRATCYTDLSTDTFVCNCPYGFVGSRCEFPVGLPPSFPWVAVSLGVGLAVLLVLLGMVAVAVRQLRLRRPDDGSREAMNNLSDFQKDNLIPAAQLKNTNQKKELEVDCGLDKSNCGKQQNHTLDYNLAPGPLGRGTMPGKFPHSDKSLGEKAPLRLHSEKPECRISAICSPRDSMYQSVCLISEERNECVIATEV

PE positive cells (%) (Dll4 [1]): 11% | PE positive cells (%) (Dll4 [2]): 16.8% | PE positive cells (%) (Dll4 [3]): 9.6%
Molecule: NOTCH1-Fc (Fc fusion)

Kd (human DLL4 [4]): 2.12 nM | koff (human DLL4 [4]): 0.00161 s⁻¹ | kon (human DLL4 [4]): 759000 M⁻¹ s⁻¹ | Kd (porcine DLL4 [5]): 7.21 nM | koff (porcine DLL4 [5]): 0.00182 s⁻¹ | kon (porcine DLL4 [5]): 253000 M⁻¹ s⁻¹ | Kd (porcine DLL4 [6]): 9.95 nM | koff (porcine DLL4 [6]): 0.00171 s⁻¹ | kon (porcine DLL4 [6]): 172000 M⁻¹ s⁻¹ | binding result (human DLL1 [7]): no binding (tested: 100 nM) | Kd (human DLL4 [8]): 2.27 nM | koff (human DLL4 [8]): 0.00108 s⁻¹ | kon (human DLL4 [8]): 474000 M⁻¹ s⁻¹
B1: Monoclonal Antibody 8D2 (antibody, V domains shown)
VH: SGGGLVQPGRSMKLSCAASGFTFSNYDMAWVRQDPKKGLEWVATISYDGRSTYYRDSVKGRFTISRDNAKSTLYLQMDSLRSEDTATYYCKDYDGHYHPYGMEAWGQGISVTVSS
VL: DIVLTQSPALAVTLGQRATISCRASQSVTISNYNLMQWYQQRPGRQPKLLIYDASNLASGIPARFSGSGSGTDFTLTIDPVQADDIATYYCQQSRDDPRTFGGGTKLELR
notes: Rat hybridoma monoclonal antibody, IgG type (captured by goat anti-rat Fc); also called BMH-8D2-D10; rat 8D2

Kd (porcine DLL4 [9]): 7.07 nM | koff (porcine DLL4 [9]): 0.00198 s⁻¹ | kon (porcine DLL4 [9]): 281000 M⁻¹ s⁻¹ | kon (human DLL4 [10]): > 500000 M⁻¹ s⁻¹ | binding result (human DLL1 [11]): no binding | Kd (porcine DLL4 [6]): 15.4 nM | koff (porcine DLL4 [6]): 0.00162 s⁻¹ | kon (porcine DLL4 [6]): 106000 M⁻¹ s⁻¹ | Kd (human DLL4 [12]): 0.343 nM | koff (human DLL4 [12]): 0.000439 s⁻¹ | kon (human DLL4 [12]): 1.28e+06 M⁻¹ s⁻¹ | fold higher affinity than 8D2 (human DLL4 [13]): ~10 fold | fold lower off rate than 8D2 (human DLL4 [13]): 4 fold | Kd (human DLL4 [14]): 3.68 nM | koff (human DLL4 [14]): 0.000505 s⁻¹ | kon (human DLL4 [14]): 137000 M⁻¹ s⁻¹
B2: Monoclonal Antibody 8C2 (antibody, V domains shown)
VH: QVQLKESGPGLVQPSQTLSLTCTVSGISISIYGVSWVRQPPGKGLEWMGGIWGDGSTDYNSALKSRLSLSRDTSKSQVFLKMNSLQTEDTAIYFCTLSGDFDYWGHGVLVTVSS
VL: DIQLTQSPASLSASLDEIVTITCQASLDIGNWLAWYQQKTGKSPQLLIYGATSLAGGVPSRFSGSRSGTQYSLKISKLQVEDTGIYYCLQHYRAPFTFGSGTKLEI
notes: Rat hybridoma monoclonal antibody, IgG type (captured by goat anti-rat Fc); also called BMH-8C2-D10; BMH-8C2-D4

Kd (porcine DLL4 [15]): 9.37 µM | koff (porcine DLL4 [15]): 0.00276 s⁻¹ | kon (porcine DLL4 [15]): 295 M⁻¹ s⁻¹ | Kd (porcine DLL4 [16]): 1240 nM | koff (porcine DLL4 [16]): 0.00345 s⁻¹ | kon (porcine DLL4 [16]): 2790 M⁻¹ s⁻¹ | Kd (human DLL4 [17]): 88.6 nM | koff (human DLL4 [17]): 0.00109 s⁻¹ | kon (human DLL4 [17]): 12400 M⁻¹ s⁻¹ | binding result (human DLL1 [18]): no binding (tested: 100 nM)
B3: Monoclonal Antibody 2H10 (antibody, V domains shown)
VH: QVQVKESGPGLVQPSQTLSLTCIVSGFSLSSYHVSWVRQPPGKSLVWMGTIWAGGGTNYNSAVQSRLSISRDTSKSQVFLKVNSLQPEDTGTYYCARHYYDGYYHGPYFDYWGQGVMVTV
VL: SPASLSASLGETVTFECRASEDIYTNLAWYQQKPGNSPQLLIYDANTLADGVPSRFSGSGSGTQFSLKINSLQSEDVASYFCQQYDSYPWTFGGGTKLELRR
notes: Rat hybridoma monoclonal antibody, IgG type (captured by goat anti-rat Fc); also called BMH-2H10-A7
